The values below are quoted from earlier work in paper PMC12193198.

This series concerns the target transferrin receptor (TfR) (Homo sapiens) (UniProt P02786).

Chain of transferrin receptor (TfR) (Homo sapiens) (P02786 89-760): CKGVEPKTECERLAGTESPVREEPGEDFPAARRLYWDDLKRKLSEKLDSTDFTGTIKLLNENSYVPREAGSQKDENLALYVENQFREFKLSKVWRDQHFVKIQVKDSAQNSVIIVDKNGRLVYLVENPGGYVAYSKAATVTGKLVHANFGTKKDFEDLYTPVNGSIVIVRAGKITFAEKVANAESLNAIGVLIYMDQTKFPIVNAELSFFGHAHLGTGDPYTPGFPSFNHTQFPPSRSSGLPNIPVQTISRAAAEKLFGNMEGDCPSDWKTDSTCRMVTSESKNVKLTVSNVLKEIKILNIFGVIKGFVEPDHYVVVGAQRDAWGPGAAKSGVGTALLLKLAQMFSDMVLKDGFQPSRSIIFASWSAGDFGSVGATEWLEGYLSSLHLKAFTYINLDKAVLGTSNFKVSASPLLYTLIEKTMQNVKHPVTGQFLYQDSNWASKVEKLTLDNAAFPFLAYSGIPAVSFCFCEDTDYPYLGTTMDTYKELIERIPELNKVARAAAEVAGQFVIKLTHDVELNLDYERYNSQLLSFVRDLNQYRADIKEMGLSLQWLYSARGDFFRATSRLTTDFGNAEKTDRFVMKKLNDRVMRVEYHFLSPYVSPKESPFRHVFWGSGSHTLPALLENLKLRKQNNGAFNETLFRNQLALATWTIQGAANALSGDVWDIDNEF

In general, Kd refers to the equilibrium constant for the complex coming apart. Regarding T7 peptide, the equilibrium dissociation constant (Kd) is 10 nM.
